The assay has as its target T1, WT tetherin (human tetherin internally tagged with an HA epitope at amino acid 155) (human), Q10589.
T1 chain: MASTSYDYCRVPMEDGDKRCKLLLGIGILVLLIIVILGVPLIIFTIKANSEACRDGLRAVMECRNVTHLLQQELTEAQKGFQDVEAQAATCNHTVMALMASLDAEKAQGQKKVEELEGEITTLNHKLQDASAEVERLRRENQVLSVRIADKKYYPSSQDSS
Description: non-reducing SDS-PAGE and western blot; lysates of 293T cells cotransfected with HIV-1 ΔVpu proviral plasmid and tetherin plasmids, lysed in non-reducing buffer, probed with anti-HA; shows disulphide-linked dimers. The conditions noted are these: remark: other sources report otherwise. Background: A western blot detects proteins with antibodies after separation by electrophoresis.

B1: WT tetherin (human tetherin internally tagged with an HA epitope at amino acid 155), Q10589 1-161 (natural protein)
chain: MASTSYDYCRVPMEDGDKRCKLLLGIGILVLLIIVILGVPLIIFTIKANSEACRDGLRAVMECRNVTHLLQQELTEAQKGFQDVEAQAATCNHTVMALMASLDAEKAQGQKKVEELEGEITTLNHKLQDASAEVERLRRENQVLSVRIADKKYYPSSQDSS
modifications: here or on the partner: glycosylphosphatidylinositol (GPI) membrane anchor at the C-terminus; heterogeneously glycosylated; glycosylphosphatidylinositol (GPI) membrane anchor at the C-terminus; heterogeneously glycosylated
Take B1: the stoichiometry N – broadly, the number of molecules, sites or subunits per partner or assembly – was 2.

These data come from publication PMC3715405.
